The test has as its target T1, MMRN2 (endogenous, HUVEC) (human, UniProt Q9H8L6 23-949).
T1 construct: Endogenous protein in HUVEC lysates (co-immunoprecipitation); also called multimerin-2
T1 sequence (looked up): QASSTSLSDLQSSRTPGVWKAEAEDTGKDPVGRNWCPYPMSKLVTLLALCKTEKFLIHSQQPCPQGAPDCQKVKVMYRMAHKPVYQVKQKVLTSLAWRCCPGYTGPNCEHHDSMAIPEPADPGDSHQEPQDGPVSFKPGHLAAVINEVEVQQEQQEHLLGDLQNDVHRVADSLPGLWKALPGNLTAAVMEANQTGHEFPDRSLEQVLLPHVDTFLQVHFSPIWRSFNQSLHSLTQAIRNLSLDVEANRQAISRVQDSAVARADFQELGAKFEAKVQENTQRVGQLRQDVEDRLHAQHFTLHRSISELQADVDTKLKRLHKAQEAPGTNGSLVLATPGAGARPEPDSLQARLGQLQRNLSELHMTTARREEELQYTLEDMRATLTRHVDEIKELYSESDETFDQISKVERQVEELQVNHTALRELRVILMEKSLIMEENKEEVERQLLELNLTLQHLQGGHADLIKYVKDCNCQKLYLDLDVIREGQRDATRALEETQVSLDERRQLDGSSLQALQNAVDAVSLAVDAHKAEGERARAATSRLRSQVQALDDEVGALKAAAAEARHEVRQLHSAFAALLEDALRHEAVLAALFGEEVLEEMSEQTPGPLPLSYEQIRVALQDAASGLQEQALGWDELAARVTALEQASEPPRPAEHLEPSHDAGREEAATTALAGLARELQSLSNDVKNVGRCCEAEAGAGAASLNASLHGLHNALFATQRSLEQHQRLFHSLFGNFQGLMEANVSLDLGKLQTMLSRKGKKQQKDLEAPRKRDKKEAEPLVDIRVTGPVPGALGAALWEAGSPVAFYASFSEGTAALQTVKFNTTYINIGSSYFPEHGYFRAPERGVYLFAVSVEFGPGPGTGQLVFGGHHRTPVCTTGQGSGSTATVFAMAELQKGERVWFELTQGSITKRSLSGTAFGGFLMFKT
The test is described as follows: flow cytometry on HUVEC. As for the experimental part: FIG. 3. A distinct region of MMRN2 binds CLEC14A in the C-type lectin domain. (A) CLEC14A-ECD-Fc was used to pull down MMRN2^FL from HEK293T transfected lysates. hCLEC14A-ECD-Fc was pre-incubated with either PBS, mouse control IgG, or C1-5. […] (B) Flow cytometry analysis of CLEC14A-ECD-Fc binding to HUVEC surface. CLEC14A-ECD-Fc was pre-incubated with same conditions as in pull downs. […] Mann-Whitney test *p<0.05 n=4 error bars represent standard error mean (SEM). (C) HEK293T transfected with CLEC14A domain deletions were lysed and far western blotted with MMRN2^FL under non-reduced conditions. Upon detection of the MMRN2^FL His tag, MMRN2 binding is observed in all mutants except those lacking the CTLD or sushi domains. CLEC14A blot was included to show expression of each mutant protein. (D) Flow cytometry analysis of HEK293T transfected with chimera 1 CLEC14A^{THBD(CTLD)} or chimera 2 CLEC14A^{THBD(sushi)}. […]
HUVEC or transfected HEK293T cells were detached from tissue culture plates using cell dissociation buffer or scraped and 5×10⁵ cells were stained with 20 ug/mL of antibody of interest or 20 μg/mL of recombinant protein. […] Samples were analysed on a FACSCalibur machine (BD Biosciences). […] Isotype control staining or human Fc alone was used as background fluorescence and this was subtracted from the geometric mean fluorescence intensity of each sample. […]

B1: CLEC14A-ECD-Fc (human CLEC14A extracellular domain fused to an Fc tag) (Fc fusion)
chain: EHPTADRAGCSASGACYSLHHATMKRQAAEEACILRGGALSTVRAGAELRAVLALLRAGPGPGGGSKDLLFWVALERRRSHCTLENEPLRGFSWLSSDPGGLESDTLQWVEEPQRSCTARRCAVLQATGGVEPAGWKEMRCHLRANGYLCKYQFEVLCPAPRPGAASNLSYRAPFQLHSAALDFSPPGTEVSALCRGQLPISVTCIADEIGARWDKLSGDVLCPCPGRYLRAGKCAELPNCLDDLGGFACECATGFELGKDGRSCVTSGEGQPTLGGTGVPTRRPPATATSPVPQRTWPIRVDEKLGETPLVPEQDNSVTSIPEIPRWGSQSTMSTLQMSLQAESKATITPSGSVISKFNSTTSSATPQAFDSSS
notes: Expressed in HEK293T cells; also called hCLEC14A-ECD-Fc; C14A-Fc; not shown: human IgG Fc tag
As for B1, the binding result is on record as “binds”.
